Residue numbers refer to the chain shown, from its start. Numbers in names are those of the source.
B1: L70Q/A91G/N144D (protein)
chain: VIHVTKEVKEVATLSCGHNVSVEELAQTRIYWQKEKKMVLTMMSGDMNIWPEYKNRTIFDITNNLSIVIQALRPSDEGTYECVVLKYEKDGFKREHLAEVTLSVKADFPTPSISDFEIPTSNIRRIICSTSGGFPEPHLSWLEDGEELNAINTTVSQDPETELYAVSSKLDFNMTTNHSFMCLIKYGHLRVNQTFNWNTTKQEHFPDN
modifications: CD80 v122 ECD
B2: V20L/L70Q/A91S/I118V/T120S/T130A (protein)
chain: B1 chain with V20L, I118V, T120S, T130A, D144N
modifications: CD80 v127 ECD
B3: L70Q/A91G/I118V/T120S/T130A/K169E (protein)
chain: B1 chain with I118V, T120S, T130A, D144N, K169E
modifications: CD80 v125 ECD
B4: L70Q/A91G/E117G/I118V/T120S/T130A (protein)
chain: B1 chain with E117G, I118V, T120S, T130A, D144N
modifications: CD80 v128 ECD
B5: L70Q/A91G/I118A/T120S/T130A/K169E (protein)
chain: B1 chain with I118A, T120S, T130A, D144N, K169E
modifications: CD80 v123 ECD
B6: V4M/L70Q/A91G/I118V/T120S/T130A/K169E (protein)
chain: B1 chain with V4M, I118V, T120S, T130A, D144N, K169E
modifications: CD80 v124 ECD
B7: S44P/L70Q/A91G/T130A (protein)
chain: B1 chain with S44P, T130A, D144N
B8: L70Q/A91G/T130A (protein)
chain: B1 chain with T130A, D144N
modifications: CD80 v2 ECD
B9: E35D/M47I: variant CD80 IgV-Fc, IgV SEQ ID NO:177 (protein)
chain: VIHVTKEVKEVATLSCGHNVSVEELAQTRIYWQKDKKMVLTMMSGDINIWPEYKNRTIFDITNNLSIVILALRPSDEGTYECVVLKYEKDAFKREHLAEVTLSVKAD
B10: Y31H/E35D/T41S/V68L/K93R/R94W: variant CD80 IgV-Fc, IgV SEQ ID NO:223 (protein)
chain: B9 chain with Y31H, T41S, I47M, V68L, K93R, R94W
B11: D46E/A71D: variant CD80 IgV-Fc, IgV SEQ ID NO:222 (protein)
chain: B9 chain with D35E, D46E, I47M, A71D
B12: E35D/T57A/A71D/L85Q: variant CD80 IgV-Fc, IgV SEQ ID NO:206 (protein)
chain: B9 chain with I47M, T57A, A71D, L85Q
B13: N55I/T57I/I69F: variant CD80 IgV-Fc, IgV SEQ ID NO:211 (protein)
chain: B9 chain with D35E, I47M, N55I, T57I, I69F
B14: V68M/L70M/A71D/E95K: variant CD80 IgV-Fc, IgV SEQ ID NO:210 (protein)
chain: B9 chain with D35E, I47M, V68M, L70M, A71D, E95K
B15: A12T/E24D/E35D/D46V/I61V/L72P/E95V: variant CD80 IgV-Fc, IgV SEQ ID NO:217 (protein)
chain: B9 chain with A12T, E24D, D46V, I47M, I61V, L72P, E95V
B16: Q27H/E35G/A71D/L72P/T791: variant CD80 IgV-Fc, IgV SEQ ID NO:196 (protein)
chain: B9 chain with Q27H, D35G, I47M, A71D, L72P, T79I
B17: V22L/E35D/M43L/A71G/D76H: variant CD80 IgV-Fc, IgV SEQ ID NO:218 (protein)
chain: B9 chain with V22L, M43L, I47M, A71G, D76H
B18: M47V/I69F/A71D/V831: variant CD80 IgV-Fc, IgV SEQ ID NO:205 (protein)
chain: B9 chain with D35E, I47V, I69F, A71D, V83I
B19: H18Y/A71D/L72P/E88V: variant CD80 IgV-Fc, IgV SEQ ID NO:214 (protein)
chain: B9 chain with H18Y, D35E, I47M, A71D, L72P, E88V
B20: E23D/M42V/M43I/I58V/L70R: variant CD80 IgV-Fc, IgV SEQ ID NO:209 (protein)
chain: B9 chain with E23D, D35E, M42V, M43I, I47M, I58V, L70R
B21: E35D/M43I/A71D: variant CD80 IgV-Fc, IgV SEQ ID NO:212 (protein)
chain: B9 chain with M43I, I47M, A71D
B22: T41S/T57I/L70R: variant CD80 IgV-Fc, IgV SEQ ID NO:213 (protein)
chain: B9 chain with D35E, T41S, I47M, T57I, L70R
B23: V20I/A71D: variant CD80 IgV-Fc, IgV SEQ ID NO:215 (protein)
chain: B9 chain with V20I, D35E, I47M, A71D
B24: L70Q/A71D: variant CD80 IgV-Fc, IgV SEQ ID NO:220 (protein)
chain: B9 chain with D35E, I47M, L70Q, A71D
B25: I30T/L70R: variant CD80 IgV-Fc, IgV SEQ ID NO:154 (protein)
chain: B9 chain with I30T, D35E, I47M, L70R

tested on: allogeneic CD4+ T cells; assay: Mixed Lymphocyte Reaction (MLR), IFN-gamma; assay type: cell-based, human; details: Table E32; variant ECD-Fc in MLR assay; culture supernatant
Procedure: Soluble rCD80.Fc bioactivity was tested in a human Mixed Lymphocyte Reaction (MLR). Human primary dendritic cells (DC) were generated by culturing monocytes isolated from PBMC (BenTech Bio, USA) in vitro for 7 days with 500U/ml rIL-4 (R&D Systems, USA) and 250 U/ml rGM-CSF (R&D Systems, USA) in Ex-Vivo 15 media (Lonza, Switzerland). 10,000 matured DC and 100,000 purified allogeneic CD4+ T cells (BenTech Bio, USA) were co-cultured with variant CD80 Fc fusion proteins and controls in 96 well round bottom plates in 200 μl final volume of Ex-Vivo 15 media. On day 5, IFN-gamma secretion in culture supernatants was analyzed using the Human IFN-gamma Duoset ELISA kit (R&D Systems, USA). Optical density was measured by VMax ELISA Microplate Reader (Molecular Devices, USA) and quantitated against titrated rIFN-gamma standard included in the IFN-gamma Duo-set kit (R&D Systems, USA).

Molecule | MLR IFN-gamma levels
B1 | 716 pg/mL
B2 | 710 pg/mL
B3 | 741 pg/mL
B4 | 736 pg/mL
B5 | 741 pg/mL
B6 | 991 pg/mL
B7 | 854 pg/mL
B8 | 752 pg/mL

biological target: T1, CD28 (Homo sapiens, UniProt P10747); assay: Jurkat/IL2 reporter assay: blockade of CD28 costimulation (plate-bound anti-CD3/CD86-Fc); assay type: cell-based; design: host or cells: Jurkat cells expressing an IL-2-luciferase reporter; details: Table E5; protein diluted to 40 nM before mixing with cells; 5 hours
Procedure: The day before the assay, the assay plate was prepared. […] The plate was incubated overnight at 4° C. to allow the antibody and CD86-Fc protein to adhere to the surface of the plate. The next day, the wells of the assay plate were washed twice with 150 μL PBS prior to the assay.
Jurkat effector cells expressing IL-2-luciferase reporter were counted and resuspended in assay buffer to a concentration of 2×10^6 cells/mL. 60 μL of the Jurkat cell suspension were then added to the wells containing the CD80-Fc fusion molecules or controls. The cells and CD80 proteins were incubated at room temperature for 15 minutes and then 100 μL of the cell/CD80 protein mixture were transferred/well of the prepared anti-CD3/CD86-Fc assay plate.
The assay plate was briefly spun down (10 seconds at 1200 RPM) and incubated at 37° C. for 5 hours. After the 5 hour incubation, the plate was removed and equilibrated to room temperature for 15 minutes. 100 μL of Bio-Glo (Promega) were added/well of the assay plate, which was then placed on an orbital shaker for 10 minutes. Luminescence was measured with a 1 second per well integration time using a BioTek Cytation 3 luminometer.

Molecule | Average Relative Luminescence Units
B9 | 1444 Relative Luminescence Units
B10 | 3678 Relative Luminescence Units
B11 | 490 Relative Luminescence Units
B12 | 3213 Relative Luminescence Units
B13 | 1915 Relative Luminescence Units
B14 | 2067 Relative Luminescence Units
B15 | 2408 Relative Luminescence Units
B16 | 2000 Relative Luminescence Units
B17 | 2004 Relative Luminescence Units
B18 | 290 Relative Luminescence Units
B19 | 1354 Relative Luminescence Units
B20 | 4460 Relative Luminescence Units
B21 | 3019 Relative Luminescence Units
B22 | 3641 Relative Luminescence Units
B23 | 2165 Relative Luminescence Units
B24 | 1036 Relative Luminescence Units
B25 | 3236 Relative Luminescence Units

biological target: T1, CD28; assay: Jurkat/IL2 + CHO/OKT3 +/- PD-L1 reporter assay: PD-L1-dependent CD28 costimulation; assay type: cell-based; design: host or cells: Jurkat cells expressing an IL-2-luciferase reporter; details: CHO/OKT3/PD-L1 aAPC; 0.6 nM; luciferase signal
How it was run: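 Readout is relative luminescence from lysed cocultures: test protein given 15 min at room temperature to Jurkat cells before adding CHO artificial APCs displaying OKT3 alone or OKT3 plus PD-L1, then 5 h at 37 °C, 5% CO2.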

Molecule | PD-L1-Dependent CD28 Costimulation, +PD-L1, 0.6 nM
B9 | 1047

same assay, conditions: CHO/OKT3/PD-L1 aAPC; 50 nM; luciferase signal

Molecule | PD-L1-Dependent CD28 Costimulation, +PD-L1, 50 nM
B9 | 3778

same assay, conditions: CHO/OKT3 aAPC, no PD-L1; 50 nM; luciferase signal

Molecule | PD-L1-Dependent CD28 Costimulation, No PD-L1, 50 nM
B9 | 894

same assay, conditions: CHO/OKT3 aAPC, no PD-L1; […]; luciferase signal

Molecule | PD-L1-Dependent CD28 Costimulation, No PD-L1, […]
B9 | 637

tested on: human pan T cells; assay: Anti-CD3 coimmobilization assay, IFN-gamma; assay type: cell-based; details: Table E32; variant ECD-Fc coimmobilized with anti-CD3; culture supernatant
How it was run: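 IFN-gamma in 3-day culture supernatants, quantified by ELISA, reflects costimulation. Human pan T cells or BC3 clone (100,000/well, Ex-Vivo 15) were placed on wells pre-adsorbed overnight with rCD80.Fc variants (1–80 nM) together with anti-CD3 OKT3 (1 nM or 4 nM), unbound protein removed.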

Molecule | Coimmobilization with anti CD3 IFN-gamma
B1 | 93 pg/mL
B2 | 195 pg/mL
B3 | 104 pg/mL
B4 | 98 pg/mL
B5 | 86 pg/mL
B6 | 139 pg/mL
B7 | 142 pg/mL
B8 | 99 pg/mL
